# Test results taken from the DeepSol protein solubility set.
# Assay: soluble on expression in E. coli; label from the status in PepcDB or PDB records
row,Sequence,soluble on expression in E. coli
1,MGSDKIHHHHHHMRYTYRHIGILTISLIVASCSFSQKQADNNHDKDMNPNVKIVVLDPGHFHASLLQKNPLASVNDTIRVYAPEGAEVKQYLNDINSYNQRAENPTSWKEEIYIGGDYLSRMLSDRQGDVVVLAGNNQKKTNYILEAIKAGYNVLSDKPLAINKKDFDLLIQAYQLAKERKLLLYDLMTERYDILNIIEKALLNNPDLFGELQKGSLNDPSVSMESVHHFFKNVSGKPLIRPVWYYDTEQQGEGIADVTTHLIDLVNWQCFPNETIRYQSDVEVLKARHWPTRITLPEFSQSTQADTFPAFLNKYINNNVLEVLANGSLNYTVKGIHIGMKVIWNYTPPSDGGDTFTSLKKGSKATLKTIQDKESGFVKQLYIQRAADSDHSEFESQLQKAIKQLQATYPFLSVKKMNEGLYLIDIPQADRLGHEAHFSKVAEAFLGYLHDKNMPEWENENTISKYYITTTAVELAKKEK,not soluble
2,SVFYFTSSSVNSSAYTIYMGKDKYENEDLIKHGWPEDIWFHVDKLSSAHVYLRLHKGENIEDIPKEVLMDCAHLVKANSIQGCKMNNVNVVYTPWSNLKKTADMDVGQIGFHRQKDVKIVTVEKKVNEILNRLEKTKVERFPDLAAEKECRDREERNEKKAQIQEMKKREKEEMKKKREMDELRSYSSLMKVENMSSNQDGNDSDEFM,soluble
3,LSGLTRPQEGTDEVTDAHASACLAALERGFDAEWGGFGGEPKFPRPAVLSFLFSHAVATGNRHALDMALLTLRKMAAGGIHDHLGVAGLGGGGFARYSTDRFWHVPHFEKMLYDNAQLAASYLEAYQASGDELFANTARDIFHYVLCDMTSPEGAFWSAEDADSLDPYGSGEKREGAFYLWTEQEITGLLDPEEATLFIATYGIRSDGNAPFDPHGEFTGKNILIRTMSDNELAGTFEIPIETVGKRLNSARKKLFEARKKRPRPGLDDKILTSWNGLMLSALAKGSLVLGDTTLLEAAERAARFILDTLCDSKSGKLLRRYRDGQAAIEGKAADYACLILGLLDLYSASFDSDWLRAAIKLAEAQIERFFDQEAGVFYSTAVEDHSVPLR,not soluble
4,MSLRLGVTGLSRAGKTVFISSLVHNLLNGGRLPLFEAMRSGRVSNVRLEPQPDDAIPRFQYEDHIQALVRDRLWPDSTRAISELRITLDYQSASGWGRWFSAGKLSIDIVDYPGEWLLDLPLLSQDYKQFSDATVALAGSGIRAELAQEWLAIASSLDINAPADEMTARRLAESFAAYLKACKSDERSLSTLPPGRFLMPGDLEGSPALTFAPLPGVTDAKAPKGSLRAMMERRYDAYKSIVVKPFFREHFARLDRQIVLIDTLQAVNRGPEAVQDLERALGDVLACFRPGTNSILSSLIRRRIDKVLIAATKADHLHHESHDRLERLTRRLVDRAITTIGMNGAGIEVMALASVRATREASVRQDGHELPVIVGTPMAGETINGEIFDGNRKTAIFPGDLPEDPEPLFRSIDQDGDKATLPDVNVVRFRPPNIDEPGSGGIRLSVPHIRLDRAMQFLFGDKLAEGHHHHHH,soluble
5,MMRPTVFSSKAVISSSSLSASLAGAKIIEKGGNIFDAAIAVSSVLSVTQNNLCGLGGDAFALVRYNGRVKGYNGSGKSSRNVNRGLYFELGYSRIPERGIYSAITVPGLVDLWNSLYLEYATMRFSDLISDAIKYAETGFYITRHYEESLIASSPILGQYNWSNQFMPYGKIPAEGDLFIQKDLAGTLREIAEEGPRSFYDGYLSDIIFKAMEKTNLLIDSKDLSDHKTLAANPVKSTYMDYDVFETAPNSQGATVNYWLALLEQKIQNKIPRPVDIVESGLEAYRWRSMFIGDPERMPFNGDLLSKGAGPYYNNPRVPEDKGDTTYFSISDANGNSISMIQSNYMGFGSGIIPEGTGFVLQNRGSYFTLDDKHHNSLEPRKRTFHTLAACIIEKDGELVYSLGTMGGDIQPQVQVQIITGLINQDLMPQEAIERPRWAFPATIYEQPSVLNVEDTSLINENETRLRINPMKYSSSFGTAQVTALLNGRVAGGSDPRGDGFSIPVMAGDPLEHHHHHH,not soluble
6,MSLAHPPRLNDDKPVIWTVSVTRLFELFRDISLEFDHLANITPIQLGFEKAVTYIRKKLANERCDAIIAAGSNGAYLKSRLSVPVILIKPSGYDVLQELAKAGKLTSSIGVVTYQETIPALVAFQKTFNLRLDQRSYITEEDARGQINELKANGTEAVVGAGLITDLAEEAGMTGIFIYSAATVRQAFSDALDMTRMSLRHNTHDATRNALRTRYVLEGHHHHHH,soluble
7,MGSDKIHHHHHHMKILITGATGFVGRRLVKSLSEHQLIILTRNINNAKNNLGSHHQYWQTLTDKSDLNDIDAVINLAGEPIVNKRWSNKQKKLICDSRWDITAALTQLISKSTTPPHTFISASAVGYYGRQDQNPVDETSGFHAEFSHDICQKWEDLALQAQSQQTRVCITRIGIVLGKNGGALAKMLPPFKLGLGGPIGSGEQGMSWIHVDDLISLMAYLLSNTDLQGIFNATAPQPVSNAKFAKALGNALNRPAKITTPPLALRLAMGEMSELLTTGQFVLPKRTLAAGFEFKYSDINSALDHITHSAN,not soluble
8,MESNNGIILRVAEANSTDPGMSRVRLDESSRRLLDAEIGDVVEIEKVRKTVGRVYRARPEDENKGIVRIDSVMRNNCGASIGDKVKVRKVRTEIAKKVTLAPIIRKDQRLKFGEGIEEYVQRALIRRPMLEQDNISVPGLTLAGQTGLLFKVVKTLPSKVPVEIGEETKIEIREEPASEVLEEGG,soluble
9,MSTPGTLHIVATPIGNLGDLSPRAQHILRTVTMICAEDTRHTRQLLAHFGIERPLLALHAHNEDTLAERIITRLISGASLALVSDAGTPLISDPGFLLVRAARAAGIRVTPVPGPSALIAALSVSGLPSNRFTFEGFLPAKPTARRDRLTHLAHEPRTLIFYEASHRIAECLTDLATIFGSMRAAVVARELTKIFETVLDGTLATLQTQVANDDNQRKGEFVIIVQGAADQDAAKITEGRRVYALLKEHLPPSSAAKLAAEITGAPRKALYGG,soluble
10,MIHSSVKRWGNSPAVRIPATLMQALNLNIDDEVKIDLVDGKLIIEPVRKEPVFTLAELVNDITPENLHENIDWGEPKDKEVW,soluble
11,MGSDKIHHHHHHMMNQFFEPPRVEALHVQNYRALQNVRLDSITPLTVLLGPNGSGKSTLVDVFAFLSECFGEGLRKAWDRRGRFRELRSRDSVGPIVIELQYREKPGTPLITYHLEIDEKDRGPVVKREFLRWKRTHPGAPFYFLDYREGVGRVITGEQPESQDKRIEKPLSGPDVLAVNTLGQLAENPRVIALRAFITSWHLSYLSADAARGNPEAGAEERLSQTGDNLANVIQYLGEEHPERLNKIFETLKRRVPRIEKVTSRPLDDGRLLLQVKDAPFSSPVLARFASDGTLKMLAYLILLYDPEPPQLIGIEEPENYLHPRLLPELAEECDMASERTQLIVTTHSPFFIDRLRPEQVRVLYRGADGYTRAKRVADMRGIGEFLEAGASLGDLWMEGHFDVGDPLAGEEGA,not soluble
12,MTYDYVIVGGGIVGVSTGWQLKRRYPEKSVLLIEKEAGFSRHQTGHNSGVIHAGVYYAPGSLKADFCKRGVERTLAFCAQHNIPVENCGKLLVATNEQELERMHALYDRCLQNQIDVEKLDAAQLKLAEPNIRGLGAILVKATSIVNYRLVTEKMAEAFMQLGGDVKIGTEVVGLEETPSSITLTCQQKNQRVSYQAKFLVTCSGLMADRLTKMLGLPTDFQIIPYRGEYYRLAPKHNQVVRHLIYPIPDPELPFLGVHLTRMIDGCVTVGPNAVQGFKREGYGKWNVSLRDVWEMVCFPGFWKVSAKHFKTGMVEMKNSWWKAGYLQLVRKYCPSIELTDLEPYPAGIRAQAVLSDGTLVHDFLFAESPRSLHVCNAPSPAATSAMPIGEYLCDKIAEKSLALEHHHHHH,soluble
13,MGSDKIHHHHHHMPHHQYVLTLSCPDRAGIVSAVSTFLFENGQNILDAQQYNDTESGHFFMRVVFNAAAKVIPLASLRTGFGVIAAKFTMGWHMRDRETRRKVMLLVSQSDHCLADILYRWRVGDLHMIPTAIVSNHPRETFSGFDFGDIPFYHFPVNKDTRRQQEAAITALIAQTHTDLVVLARYMQILSDEMSARLAGRCINIHHSFLPGFKGAKPYHQAFDRGVKLIGATAHYVTSALDEGPIIDQDVERISHRDTPADLVRKGRDIERRVLSRALHYHLDDRVILNGRKTVVFTD,not soluble
14,GPGSMIAILFGFTLGTAVGACNRAHYSSYGSSVYIAPLPSNSHNSLAFMDIARYRAGLFTTHQSVCGRVVIELFDSISPVSTTNFRGLCQGKHGTSGTGHKLCYSGTRLLPNECFIRGGDVTFGSAAGGWSIYGRSFREMAKGSSSSSRSSDVKGKGLVYAVGANAQWGSEFLITVDGFTPGEDHILLGQVVEGYDVLQRLQQQSLLPHAKRFIHYRILKAGVLKEAETPNYGKGSAFLRF,not soluble
